Data from patent publication US20260242478A1 (published 2026).
Where no end group is shown, it is not given here.

B1: Phage-1274 (peptide)
peptide: YCDGHTGVYKWKCI
modifications: cysteine pairing not given here; also: fused to phage pIII protein, pIII and linker sequence not given here
notes: Peptide-87 library clone on clonal phage (crude supernatant); not shown: fused to the pIII filament protein of the bacteriophage
B2: Phage-1273 (peptide)
peptide: YCEGHSSEYMVKCL
modifications: cysteine pairing not given here; also: displayed on phage by fusion to pIII, linker and pIII sequence not given here
notes: as for B1
B3: Phage-1277 (peptide)
peptide: YCDGHNPVYLAKCL
modifications: cysteine pairing not given here; also: fused to phage pIII protein, pIII and linker sequence not given here
notes: as for B1
B4: Phage-1275 (peptide)
peptide: YCAGHIGEYMDKCL
modifications: cysteine pairing not given here; also: fused to phage pIII protein, pIII and linker sequence not given here
notes: as for B1
B5: Phage-1276 (peptide)
peptide: YCDGHAGIYVLKCL
modifications: cysteine pairing not given here; also: fused to phage pIII protein, pIII and linker sequence not given here
notes: as for B1
B6: Phage-1088 (peptide)
peptide: YCDGHLSIYMTKCL
modifications: cysteine pairing not given here; also: displayed as fusion to phage pIII, linker not given here
B7: Phage-1104 (Peptide-87 library clone, SEQ ID NO: 1420) (peptide)
peptide: YCSEHQIIFIQKCL
notes: Tested as clonal phage supernatant; not shown: pIII coat protein of the bacteriophage to which the peptide is fused
B8: Phage-1105 (Peptide-87 library clone, SEQ ID NO: 1421) (peptide)
peptide: YCEGHLEIYLAKCL
notes: as for B7
B9: Phage-1103 (Peptide-87 library clone, SEQ ID NO: 1419) (peptide)
peptide: YCAGHLPMYMQKCL
notes: as for B7
B10: Phage-1110 (Peptide-87 library clone, SEQ ID NO: 1426) (peptide)
peptide: YCEGHLPMYMQKCL
notes: as for B7
B11: Phage-1109 (Peptide-87 library clone, SEQ ID NO: 1425) (peptide)
peptide: YCEGHLPAYMWKCL
notes: as for B7
B12: Phage-1107 (Peptide-87 library clone, SEQ ID NO: 1423) (peptide)
peptide: YCAGHALEYMGKCL
notes: as for B7
B13: Phage-1111 (Peptide-87 library clone, SEQ ID NO: 1427) (peptide)
peptide: YCDGHIPEYMTKCL
notes: as for B7
B14: Phage-1106 (Peptide-87 library clone, SEQ ID NO: 1422) (peptide)
peptide: YCDGHTAEFIGKCL
notes: as for B7
B15: Phage-1113 (Peptide-87 library clone, SEQ ID NO: 1429) (peptide)
peptide: YCEGHSAVYMSKCL
notes: as for B7
B16: Phage-1114 (Peptide-87 library clone, SEQ ID NO: 1430) (peptide)
peptide: YCEGHSLEYMMKCV
notes: as for B7
B17: Phage-1112 (Peptide-87 library clone, SEQ ID NO: 1428) (peptide)
peptide: YCDGHSAEYIAKCL
notes: as for B7
B18: Phage-1102 (Peptide-87 library clone, SEQ ID NO: 1418) (peptide)
peptide: YCDGHLPLYMQKCF
notes: as for B7
B19: Phage-1115 (Peptide-87 library clone, SEQ ID NO: 1431) (peptide)
peptide: YCDGHAPQYMAKCI
notes: as for B7
B20: Phage-1108 (Peptide-87 library clone, SEQ ID NO: 1424) (peptide)
peptide: YCEGHLPEYMIKCL
notes: as for B7
B21: Phage-1127 (peptide)
peptide: YCEGHQPAYMEKCL
notes: Peptide-87 library clone, tested as clonal phage (peptide fused to pIII of the bacteriophage)
B22: Phage-1125 (peptide)
peptide: YCEGHFPLYMNKCL
notes: as for B21
B23: Phage-1122 (peptide)
peptide: YCDGHLEVYMDKCL
notes: as for B21
B24: Phage-1126 (peptide)
peptide: YCEGHSTEYMAKCL
notes: as for B21
B25: Phage-1129 (peptide)
peptide: YCDGHLPVYMTKCL
notes: as for B21
B26: Phage-1128 (peptide)
peptide: YCDGHAEEYRMKCL
notes: as for B21
B27: Phage-1123 (peptide)
peptide: YCDGHSPAYLQKCL
notes: as for B21
B28: Phage-1117 (peptide)
peptide: YCAGHMPIYMTKCL
notes: as for B21
B29: Phage-1118 (peptide)
peptide: YCDGHRAEYMLKCL
notes: as for B21
B30: Phage-1119 (peptide)
peptide: YCEGHLVQYMQKCL
notes: as for B21
B31: Phage-1124 (peptide)
peptide: YCEGHSSQWMWKCL
notes: as for B21
B32: Phage-1121 (peptide)
peptide: YCEGHLPRYMLKCL
notes: as for B21
B33: Phage-1120 (peptide)
peptide: YCMGHLPIYMEKCL
notes: as for B21
B34: Phage-1116 (peptide)
peptide: YCQGHSVEHMAKCL
notes: as for B21

The binders below were run against T1, Anti-CD28 Fab (SEQ ID NOs: 696, 697) (assay: phage ELISA; Fab on plate pre-incubated with CD28 antigen as competitor, anti-M13 HRP detection).
T1 construct: Used biotinylated and captured on neutravidin coated plates in the phage ELISA
T1 sequence (VH, as listed by the source, chain 1 of 2): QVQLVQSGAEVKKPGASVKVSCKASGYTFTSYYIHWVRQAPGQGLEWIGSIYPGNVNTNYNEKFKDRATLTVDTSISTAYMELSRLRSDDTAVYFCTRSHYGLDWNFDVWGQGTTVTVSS
T1 sequence (VL, as listed by the source, chain 2 of 2): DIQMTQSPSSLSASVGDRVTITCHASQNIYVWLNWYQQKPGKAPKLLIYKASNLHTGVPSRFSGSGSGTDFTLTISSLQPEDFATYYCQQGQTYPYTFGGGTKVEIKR
Experimental: (§1) After panning, phage infected bacteria were plated out and colonies picked into 96 well blocks. Clonal phage was then amplified and separated from bacterial cells via centrifugation.
(§2) Clonal phage were harvested as crude supematants and screened via standard ELISAs. […] Prior to the addition of clonal phage, wells were incubated with blocking buffer and CD28 antigen or blocking buffer alone. Without washing or aspirating, clonal phage supematants were then added to the wells and incubated for a short time. Wells were then washed followed by detection of bound phage using a horse radish conjugated anti-M13 antibody. Clonal phage of interest were then sent for sequence analysis.

B1 and B2 are the same in “Phage binding ELISA, Anti-CD28 Fab signal in the presence of CD28” value: 0.06 for the first, 0.06 for the second.

Compared with B3, B4 is higher in “Phage binding ELISA, Anti-CD28 Fab signal in the presence of CD28” value: 0.08 for the first, 0.58 for the second.

B5 was tested, and the “Phage binding ELISA, Anti-CD28 Fab signal in the presence of CD28” value was 0.08.

These binders were tested against T2, Anti-CD28 Fab (SEQ ID NOs: 696, 697) (assay: phage binding ELISA; biotinylated anti-CD28 Fab on neutravidin plate, clonal phage detected with anti-M13 HRP).
T2 construct: In the phage ELISA the Fab was biotinylated and captured on neutravidin coated plates
T2 sequence (VH, as listed by the source, chain 1 of 2): as the sequence (VH, as listed by the source, chain 1 of 2) above
T2 sequence (VL, as listed by the source, chain 2 of 2): as the sequence (VL, as listed by the source, chain 2 of 2) above
Experimental: as §1, §2

For B6, the “Anti-CD28 Fab signal (phage binding ELISA)” value was 1.36.

These binders were tested against T2, Anti-CD28 Fab (SEQ ID NOs: 696, 697) (assay: phage binding ELISA; Fab-coated wells pre-incubated with CD28 antigen as competitor, phage detected with anti-M13 HRP).
Experimental: as §1, §2

For B6, the “Anti-CD28 Fab signal in the presence of CD28 (phage binding ELISA)” value was 0.07.

Each binder was assayed against T3, Anti-CD28 Fab (SEQ ID NOs: 696, 697) (assay: phage ELISA; captured anti-CD28 Fab pre-incubated with CD28 antigen as competitor, anti-M13 HRP detection;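 also: crude clonal phage supernatants screened by ELISA, with wells pre-incubated with CD28 antigen in blocking buffer, compared against wells given blocking buffer alone as control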).
T3 construct: In the phage ELISA the Fab was biotinylated and captured on neutravidin coated plates
T3 sequence (VH, as listed by the source, chain 1 of 2): as the sequence (VH, as listed by the source, chain 1 of 2) above
T3 sequence (VL, as listed by the source, chain 2 of 2): as the sequence (VL, as listed by the source, chain 2 of 2) above
Experimental: as §1, §2

Going from B7 to B8, the “Anti-CD28 Fab signal in the presence of CD28 (phage binding ELISA)” value falls from 0.08 to 0.07.

B9 and B10 are the same in “Anti-CD28 Fab signal in the presence of CD28 (phage binding ELISA)” value: 0.08 for the first, 0.08 for the second.

First: B11
Second: B12
The “Anti-CD28 Fab signal in the presence of CD28 (phage binding ELISA)” value of the first is higher: 0.08 for the first, 0.06 for the second.

B13 and B14 are the same in “Anti-CD28 Fab signal in the presence of CD28 (phage binding ELISA)” value: 0.06 for the first, 0.06 for the second.

Going from B15 to B16, the “Anti-CD28 Fab signal in the presence of CD28 (phage binding ELISA)” value rises from 0.06 to 0.07.

Compared with B17, B18 is higher in “Anti-CD28 Fab signal in the presence of CD28 (phage binding ELISA)” value: 0.05 for the first, 0.1 for the second.

B19 and B20 are the same in “Anti-CD28 Fab signal in the presence of CD28 (phage binding ELISA)” value: 0.06 for the first, 0.06 for the second.

These binders were tested against T1, Anti-CD28 Fab (SEQ ID NOs: 696, 697) (assay: phage ELISA; biotinylated Fab on neutravidin plate, clonal phage supernatant, anti-M13 HRP detection).
Experimental: as §1, §2

Going from B1 to B2, the “Phage binding ELISA, Anti-CD28 Fab (SEQ ID NOs: 696, 697) signal” value rises from 0.76 to 0.77.

Going from B3 to B4, the “Phage binding ELISA, Anti-CD28 Fab (SEQ ID NOs: 696, 697) signal” value rises from 0.74 to 0.75.

In the case of B5, the “Phage binding ELISA, Anti-CD28 Fab (SEQ ID NOs: 696, 697) signal” value is reported as 0.75.

The binders below were run against Anti-CD28 Fab (SEQ ID NOs: 696, 697) (assay: phage ELISA, clonal phage supernatant on biotinylated anti-CD28 Fab captured on neutravidin plates).
Target sequence in this assay (VH, as listed by the source, chain 1 of 2): as the sequence (VH, as listed by the source, chain 1 of 2) above
Target sequence in this assay (VL, as listed by the source, chain 2 of 2): as the sequence (VL, as listed by the source, chain 2 of 2) above
Experimental: as §1, §2

B21 and B22 are the same in “Anti-CD28 Fab signal (phage binding ELISA)” value: 1.27 for the first, 1.27 for the second.

Compared with B23, B24 is lower in “Anti-CD28 Fab signal (phage binding ELISA)” value: 1.28 for the first, 1.27 for the second.

B25 and B26 are the same in “Anti-CD28 Fab signal (phage binding ELISA)” value: 1.27 for the first, 1.27 for the second.

First: B27
Second: B28
The “Anti-CD28 Fab signal (phage binding ELISA)” value of the first is lower: 1.28 for the first, 1.3 for the second.

Going from B29 to B30, the “Anti-CD28 Fab signal (phage binding ELISA)” value falls from 1.29 to 1.28.

Compared with B31, B32 is higher in “Anti-CD28 Fab signal (phage binding ELISA)” value: 1.27 for the first, 1.28 for the second.

Compared with B33, B34 is higher in “Anti-CD28 Fab signal (phage binding ELISA)” value: 1.28 for the first, 1.3 for the second.

What follows are binders tested against T3, Anti-CD28 Fab (SEQ ID NOs: 696, 697) (assay: phage ELISA; biotinylated anti-CD28 Fab on neutravidin plate, clonal phage supernatant, anti-M13 HRP detection;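 also: crude supernatants of single phage clones picked after panning were screened for binding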).
Experimental: as §1, §2

B7 and B8 are the same in “Anti-CD28 Fab signal (phage binding ELISA)” value: 1.32 for the first, 1.32 for the second.

Going from B9 to B10, the “Anti-CD28 Fab signal (phage binding ELISA)” value falls from 1.33 to 1.31.

Going from B11 to B12, the “Anti-CD28 Fab signal (phage binding ELISA)” value rises from 1.31 to 1.32.

First: B13
Second: B14
The “Anti-CD28 Fab signal (phage binding ELISA)” value of the first is lower: 1.31 for the first, 1.32 for the second.

First: B15
Second: B16
The “Anti-CD28 Fab signal (phage binding ELISA)” value of the first is higher: 1.31 for the first, 1.3 for the second.

First: B17
Second: B18
The “Anti-CD28 Fab signal (phage binding ELISA)” value of the first is lower: 1.31 for the first, 1.33 for the second.

Going from B19 to B20, the “Anti-CD28 Fab signal (phage binding ELISA)” value rises from 1.3 to 1.32.

Each binder was assayed against Anti-CD28 Fab (SEQ ID NOs: 696, 697) (assay: phage ELISA on captured anti-CD28 Fab, wells pre-incubated with CD28 antigen as competitor;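 also: crude clonal phage supernatants added without washing, bound phage read out by HRP-coupled anti-M13 antibody, reference wells given blocking buffer only instead of CD28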).
Target sequence in this assay (VH, as listed by the source, chain 1 of 2): as the sequence (VH, as listed by the source, chain 1 of 2) above
Target sequence in this assay (VL, as listed by the source, chain 2 of 2): as the sequence (VL, as listed by the source, chain 2 of 2) above
Experimental: as §1, §2

Compared with B21, B22 is higher in “Anti-CD28 Fab signal in the presence of CD28 (phage binding ELISA)” value: 0.06 for the first, 0.08 for the second.

Compared with B23, B24 is lower in “Anti-CD28 Fab signal in the presence of CD28 (phage binding ELISA)” value: 0.07 for the first, 0.06 for the second.

First: B25
Second: B26
The “Anti-CD28 Fab signal in the presence of CD28 (phage binding ELISA)” value of the first is lower: 0.07 for the first, 0.08 for the second.

Going from B27 to B28, the “Anti-CD28 Fab signal in the presence of CD28 (phage binding ELISA)” value rises from 0.06 to 0.08.

Going from B29 to B30, the “Anti-CD28 Fab signal in the presence of CD28 (phage binding ELISA)” value falls from 0.08 to 0.06.

Compared with B31, B32 is higher in “Anti-CD28 Fab signal in the presence of CD28 (phage binding ELISA)” value: 0.09 for the first, 0.3 for the second.

First: B33
Second: B34
The “Anti-CD28 Fab signal in the presence of CD28 (phage binding ELISA)” value of the first is lower: 0.05 for the first, 0.06 for the second.
